Assay results as given in publication PMC6735865 (Nucleic Acids Research, 2019).

Molecular target: human METTL5, C-terminally His6-tagged (human, UniProt Q9NRN9)
Assay: pull-down

human METTL5, C-terminally His6-tagged, sequence (Q9NRN9 whole entry): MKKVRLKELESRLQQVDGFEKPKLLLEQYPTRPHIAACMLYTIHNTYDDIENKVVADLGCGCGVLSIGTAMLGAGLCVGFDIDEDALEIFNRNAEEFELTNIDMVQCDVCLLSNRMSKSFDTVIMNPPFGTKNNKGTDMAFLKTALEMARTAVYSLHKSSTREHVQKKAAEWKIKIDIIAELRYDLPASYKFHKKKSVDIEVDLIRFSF

B1: human TRMT112, untagged (natural protein)
chain: MKLLTHNLLSSHVRGVGSRGFPLRLQATEVRICPVEFNPNFVARMIPKVEWSAFLEAADNLRLIQVPKGPVEGYEENEEFLRTMHHLLLEVEVIEGTLQCPESGRMFPISRGIPNMLLSEEETES
**Q.** Does B1 bind?
**A.** binds
